Earlier results as cited in publication PMC9405863.

Biological target: Calmodulin (Homo sapiens) (UniProt P0DP23)
Assay: ITC

Substance | Kd
STIM2 K-rich domain (from UniProt Q9P246) | 900 nM
STIM1 K-rich domain (from UniProt Q13586) | 800 nM
